System: RSK2
Sequence (chain, as listed by the source): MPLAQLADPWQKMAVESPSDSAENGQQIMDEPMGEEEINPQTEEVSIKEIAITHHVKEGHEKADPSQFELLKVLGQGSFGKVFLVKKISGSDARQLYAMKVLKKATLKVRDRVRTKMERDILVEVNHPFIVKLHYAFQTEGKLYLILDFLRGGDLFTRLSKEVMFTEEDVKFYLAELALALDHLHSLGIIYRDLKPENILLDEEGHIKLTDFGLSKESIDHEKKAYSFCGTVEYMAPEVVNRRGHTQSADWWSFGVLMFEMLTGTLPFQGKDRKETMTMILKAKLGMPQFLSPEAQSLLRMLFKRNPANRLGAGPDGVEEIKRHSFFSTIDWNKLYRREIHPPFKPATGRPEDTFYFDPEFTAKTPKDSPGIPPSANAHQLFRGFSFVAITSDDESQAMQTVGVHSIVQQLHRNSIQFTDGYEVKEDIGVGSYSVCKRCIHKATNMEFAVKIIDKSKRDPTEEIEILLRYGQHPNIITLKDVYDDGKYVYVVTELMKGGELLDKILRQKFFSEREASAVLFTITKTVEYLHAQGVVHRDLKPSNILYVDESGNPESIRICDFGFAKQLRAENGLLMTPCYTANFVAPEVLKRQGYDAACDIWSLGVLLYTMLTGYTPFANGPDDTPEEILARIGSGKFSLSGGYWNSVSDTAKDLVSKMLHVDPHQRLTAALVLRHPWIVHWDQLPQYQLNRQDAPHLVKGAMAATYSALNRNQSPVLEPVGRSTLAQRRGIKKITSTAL

WWP1
RSK2 ubiquitination: WWP1 can promote low levels of RSK2 ubiquitination
